Consider 14 substances from paper PMC7430637.

What is called Kd is the concentration at which binding is half-saturated.

For test [1], the target named is FAM-H3(1-15)K9me3 peptide (N-terminally fluorescein-labelled). The test is described as follows: fluorescence polarisation; FAM-labelled H3(1-15) peptide, recombinant protein titrated; RT; as described (ref. 28). For orientation: In fluorescence polarisation assays a small probe gives low polarisation when free and higher when bound to something large.
For test [2], the target named is H3(1-15)K9me3-FAM peptide (C-terminally fluorescein-labelled). The test is described as above.
Test [3] deals with H3(1-15)unmodified-FAM peptide (C-terminally fluorescein-labelled). The test is described as above.
Test [4] deals with FAM-H3(1–15)K9me3 peptide. The test is described as follows: fluorescence polarisation; FAM-labelled H3(1–15) peptide, recombinant protein titrated; room temperature; as described in ref. 28.
Test [5] deals with human UHRF1 (hUHRF1), full-length, wild type (human) (UniProt Q96T88). The test is described as follows: MST; 50 nM His-tag-labelled (RED-tris-NTA) UHRF1 protein, H3 peptide titrated; 20 mM HEPES-NaOH pH 7.9, 150 mM NaCl, 0.05% Tween-20; room temperature; Monolith NT.115.
Chain of human UHRF1 (hUHRF1), full-length, wild type (human) (Q96T88 whole entry): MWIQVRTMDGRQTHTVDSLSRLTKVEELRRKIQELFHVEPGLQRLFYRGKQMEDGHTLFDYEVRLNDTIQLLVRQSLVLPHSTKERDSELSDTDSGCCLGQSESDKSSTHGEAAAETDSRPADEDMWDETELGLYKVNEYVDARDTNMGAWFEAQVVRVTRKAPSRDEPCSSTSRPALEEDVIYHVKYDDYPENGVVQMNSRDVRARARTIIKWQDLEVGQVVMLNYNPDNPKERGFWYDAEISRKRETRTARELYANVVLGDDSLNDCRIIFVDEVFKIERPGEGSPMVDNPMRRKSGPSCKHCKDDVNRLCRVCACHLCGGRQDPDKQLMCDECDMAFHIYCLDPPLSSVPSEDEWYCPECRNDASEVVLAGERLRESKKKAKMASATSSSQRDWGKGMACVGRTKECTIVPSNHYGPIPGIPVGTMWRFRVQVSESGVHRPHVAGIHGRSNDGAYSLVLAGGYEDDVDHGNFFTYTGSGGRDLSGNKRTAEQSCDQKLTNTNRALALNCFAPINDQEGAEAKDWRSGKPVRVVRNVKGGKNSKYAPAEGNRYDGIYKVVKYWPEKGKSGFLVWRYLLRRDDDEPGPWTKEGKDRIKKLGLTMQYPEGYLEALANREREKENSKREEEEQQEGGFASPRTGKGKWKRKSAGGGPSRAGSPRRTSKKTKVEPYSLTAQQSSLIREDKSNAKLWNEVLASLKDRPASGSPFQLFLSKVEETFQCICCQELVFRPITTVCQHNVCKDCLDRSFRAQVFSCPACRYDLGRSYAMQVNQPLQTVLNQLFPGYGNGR
For test [6], the target named is murine UHRF1 splicing variant 1 (mUHRF1 V1), full-length, wild type (mouse) (UniProt Q8VDF2). The description is as above.
Chain of murine UHRF1 splicing variant 1 (mUHRF1 V1), full-length, wild type (mouse) (Q8VDF2 whole entry, change not shown): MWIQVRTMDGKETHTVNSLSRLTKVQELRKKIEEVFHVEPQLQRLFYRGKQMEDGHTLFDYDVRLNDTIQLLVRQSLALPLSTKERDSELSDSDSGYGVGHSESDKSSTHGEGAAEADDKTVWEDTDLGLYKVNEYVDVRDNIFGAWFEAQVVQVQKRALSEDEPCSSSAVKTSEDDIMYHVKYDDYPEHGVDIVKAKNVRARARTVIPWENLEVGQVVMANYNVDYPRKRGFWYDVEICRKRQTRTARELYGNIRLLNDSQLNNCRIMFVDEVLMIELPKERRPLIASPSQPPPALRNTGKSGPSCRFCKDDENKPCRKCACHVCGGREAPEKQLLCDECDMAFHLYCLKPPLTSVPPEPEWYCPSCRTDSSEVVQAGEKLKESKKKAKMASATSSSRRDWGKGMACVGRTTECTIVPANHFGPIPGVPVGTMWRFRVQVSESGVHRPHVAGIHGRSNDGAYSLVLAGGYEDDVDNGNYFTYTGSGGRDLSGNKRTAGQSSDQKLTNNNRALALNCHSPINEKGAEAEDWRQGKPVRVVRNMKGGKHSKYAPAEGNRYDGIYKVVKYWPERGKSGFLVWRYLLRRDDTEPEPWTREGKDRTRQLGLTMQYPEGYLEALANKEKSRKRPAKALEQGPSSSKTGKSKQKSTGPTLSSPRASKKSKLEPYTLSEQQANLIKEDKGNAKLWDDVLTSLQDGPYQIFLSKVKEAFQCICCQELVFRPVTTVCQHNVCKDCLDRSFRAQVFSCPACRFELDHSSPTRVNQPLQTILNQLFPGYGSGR
Test [7] addresses murine UHRF1 splicing variant 2 (mUHRF1 V2), full-length, wild type (mouse). The test is described as above.
Test [8] deals with recombinant hUHRF1 (human) (UniProt Q96T88). The test can be described thus: MST; 50 nM 6× His-tagged protein labelled with RED-tris-NTA dye, peptide titrated; 20 mM HEPES–NaOH pH 7.9, 150 mM NaCl, 0.05% Tween-20; room temperature; also with 100-fold molar excess of 16:0 PI5P (Figure 3D).
Chain of recombinant hUHRF1 (human) (Q96T88 whole entry): as the sequence (Q96T88 whole entry) above
Test [9] addresses recombinant mUHRF1 V1 (mouse) (UniProt Q8VDF2). The test is described as above.
Test [10] deals with H3(1–15)K9me3-FAM peptide. The test can be described thus: fluorescence polarisation; FAM-labelled H3(1–15) peptide, recombinant protein titrated; room temperature; as described in ref. 28.
In test [11] the target is H3(1–15)unmodified-FAM peptide. The description is as above.
Test [12] has as its target mUHRF1 V1 P-patch/R* (P293A/P294A/P295A/L297A/R298A), full-length (mouse) (UniProt Q8VDF2). The test is described as follows: MST; 50 nM His-tag-labelled (RED-tris-NTA) UHRF1 protein, H3 peptide titrated; 20 mM HEPES-NaOH pH 7.9, 150 mM NaCl, 0.05% Tween-20; room temperature; Monolith NT.115.
The target in test [13] is mUHRF1 V1 R-S* (R298A/N299A/T300A/G301A/K302A/S303A), full-length (mouse) (UniProt Q8VDF2). Described as above.
Chain of mUHRF1 V1 R-S* (R298A/N299A/T300A/G301A/K302A/S303A), full-length (mouse) (Q8VDF2 whole entry R298A/N299A/T300A/G301A/K302A/S303A): as the sequence (Q8VDF2 whole entry, change not shown) above, with R298A, N299A, T300A, G301A, K302A, S303A counted along it
Test [14] concerns the target mUHRF1 V1 R298* (R298A), full-length (mouse) (UniProt Q8VDF2). The test is described as above.

Chain of mUHRF1 V1 R298* (R298A), full-length (mouse) (Q8VDF2 whole entry R298A): as the sequence (Q8VDF2 whole entry, change not shown) above, with R298A counted along it
Chain of mUHRF1 V1 P-patch/R* (P293A/P294A/P295A/L297A/R298A), full-length (mouse) (Q8VDF2 whole entry P293A/P294A/P295A/L297A/R298A): as the sequence (Q8VDF2 whole entry, change not shown) above, with P293A, P294A, P295A, L297A, R298A counted along it
Chain of recombinant mUHRF1 V1 (mouse) (Q8VDF2 whole entry): as the sequence (Q8VDF2 whole entry, change not shown) above

Regarding “isolated tandem tudor domain of human UHRF1 (hTTD) (from UniProt Q96T88 1-793) (domain or fragment)”, the dissociation constant Kd in test [1] stood at 6.3 µM; in test [2], 4.9 µM.
Take “mTTD-PHD V2 module (mUHRF1 V2 122-372) (domain or fragment)”: the values for the Kd in test [2] and in test [3] were 14.4 µM and 10.5 µM, respectively.
As to “murine UHRF1 splicing variant 2 (mUHRF1 V2), full-length, wild type (natural protein)”, the Kd in [1] is greater than 50 µM; in [2], 19.8 µM; in [3], 14.8 µM.
For the substance mTTD-PHD V2 (domain or fragment), in [4], the Kd was 12.3 µM.
Consider “histone H3 N-terminal tail peptide, R2 symmetrically dimethylated and K9 trimethylated (MST)”, for which the Kd in test [5] came out at 16 µM; in test [6] it was 28 µM; in test [7], 14 µM.
Take “human UHRF1 (hUHRF1), full-length, wild type (from UniProt Q96T88-1 1-793) (natural protein)”: the results for the Kd in test [2] and in test [3] were 7.7 µM and 15 µM, respectively.
On to H3R2me2sK9me3 peptide (titrated in MST), for which the fold weaker affinity against the H3K9me3 peptide in [8] came out at 10 fold. In [9], the fold reduction of binding against the H3K9me3 peptide is 20 fold.
mTTD-PHD V1 (domain or fragment): the Kd in [4] was greater than 300 µM; in test [10] it was 4.9 µM; in test [11] it was 14.3 µM.
As for “hTTD-PHD module of human UHRF1, wild type (from UniProt Q96T88 1-793) (domain or fragment)”, the dissociation constant Kd in test [2] amounted to 2.6 µM; in [3], 2.4 µM.
“mTTD-PHD V1 TTD* (Y184A/Y187A, aromatic cage mutant) (from UniProt Q8VDF2-1 122-380) (domain or fragment)”: the figures for the Kd in test [2] and in test [3] were 21.4 µM and 19.5 µM, respectively.
For the substance “isolated tandem tudor domain of murine UHRF1 (mTTD) (from UniProt Q8VDF2 1-782) (domain or fragment)”, the results for the Kd in test [1] and in test [2] were 3.4 µM and 2.7 µM, respectively.
As to “murine UHRF1 splicing variant 1 (mUHRF1 V1), full-length, wild type (from UniProt Q8VDF2 1-782) (natural protein)”, the Kd was 6.4 µM in test [2] and 12.7 µM in test [3].
Turning to “histone H3 N-terminal tail peptide, unmodified (MST)”, the Kd in test [5] came out at 2.5 µM; in [12], 4.1 µM; in test [13] it was 5.1 µM; in [14] it was 4.6 µM; in [6], 5.3 µM; in test [7], 5.8 µM.
As for “histone H3 N-terminal tail peptide, K9 trimethylated (MST)”, the Kd in [5] came out at 1.5 µM; in test [12], 6.3 µM; in test [13], 6.2 µM; in [14], 6.7 µM; in [6], 1.4 µM; in test [7], 4.5 µM.
